Measured values taken from publication PMC7956748 (2021).
Blank lines part the entries; values can stand above or below the binder they belong to.

Experiments:
[1] = molecular target: T1, transforming growth factor-beta 1 (TGF-β1) (UniProt P01137 279-390); test: SPR
[2] = molecular target: T1, transforming growth factor-beta 1 …; test: SPR; remark: listed apart in the source

T1 sequence (P01137 279-390): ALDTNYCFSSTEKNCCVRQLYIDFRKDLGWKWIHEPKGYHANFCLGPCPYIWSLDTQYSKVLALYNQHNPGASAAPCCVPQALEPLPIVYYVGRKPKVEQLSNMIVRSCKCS

koff [1]: 0.000392 s⁻¹ | Kd [2]: 22.9 nM
B1: cartilage oligomeric matrix protein (COMP), recombinant full-length rat (natural protein)
chain: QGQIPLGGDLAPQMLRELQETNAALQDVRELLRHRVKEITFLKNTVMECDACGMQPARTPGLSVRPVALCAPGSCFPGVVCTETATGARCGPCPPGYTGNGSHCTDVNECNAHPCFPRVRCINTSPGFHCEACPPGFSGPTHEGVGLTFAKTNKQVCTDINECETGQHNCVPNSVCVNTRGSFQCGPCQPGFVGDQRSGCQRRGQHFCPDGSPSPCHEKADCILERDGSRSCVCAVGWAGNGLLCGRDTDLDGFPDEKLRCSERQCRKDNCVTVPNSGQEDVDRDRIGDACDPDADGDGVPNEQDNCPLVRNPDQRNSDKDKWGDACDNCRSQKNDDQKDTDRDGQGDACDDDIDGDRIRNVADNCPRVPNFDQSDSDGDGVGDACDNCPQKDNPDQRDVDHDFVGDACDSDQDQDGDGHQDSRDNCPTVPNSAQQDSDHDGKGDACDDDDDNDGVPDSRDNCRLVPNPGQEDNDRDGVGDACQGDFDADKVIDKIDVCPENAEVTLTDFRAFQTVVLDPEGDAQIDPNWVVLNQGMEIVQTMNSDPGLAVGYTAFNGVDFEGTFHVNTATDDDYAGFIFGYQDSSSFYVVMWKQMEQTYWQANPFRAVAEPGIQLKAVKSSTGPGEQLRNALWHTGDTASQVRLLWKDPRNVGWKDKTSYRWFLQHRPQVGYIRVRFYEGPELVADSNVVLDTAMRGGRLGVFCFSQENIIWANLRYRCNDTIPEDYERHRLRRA

koff [1]: 0.000889 s⁻¹ | Kd [2]: 6.3 nM
B2: thrombospondin-4 (TSP-4), recombinant full-length rat (natural protein)
chain: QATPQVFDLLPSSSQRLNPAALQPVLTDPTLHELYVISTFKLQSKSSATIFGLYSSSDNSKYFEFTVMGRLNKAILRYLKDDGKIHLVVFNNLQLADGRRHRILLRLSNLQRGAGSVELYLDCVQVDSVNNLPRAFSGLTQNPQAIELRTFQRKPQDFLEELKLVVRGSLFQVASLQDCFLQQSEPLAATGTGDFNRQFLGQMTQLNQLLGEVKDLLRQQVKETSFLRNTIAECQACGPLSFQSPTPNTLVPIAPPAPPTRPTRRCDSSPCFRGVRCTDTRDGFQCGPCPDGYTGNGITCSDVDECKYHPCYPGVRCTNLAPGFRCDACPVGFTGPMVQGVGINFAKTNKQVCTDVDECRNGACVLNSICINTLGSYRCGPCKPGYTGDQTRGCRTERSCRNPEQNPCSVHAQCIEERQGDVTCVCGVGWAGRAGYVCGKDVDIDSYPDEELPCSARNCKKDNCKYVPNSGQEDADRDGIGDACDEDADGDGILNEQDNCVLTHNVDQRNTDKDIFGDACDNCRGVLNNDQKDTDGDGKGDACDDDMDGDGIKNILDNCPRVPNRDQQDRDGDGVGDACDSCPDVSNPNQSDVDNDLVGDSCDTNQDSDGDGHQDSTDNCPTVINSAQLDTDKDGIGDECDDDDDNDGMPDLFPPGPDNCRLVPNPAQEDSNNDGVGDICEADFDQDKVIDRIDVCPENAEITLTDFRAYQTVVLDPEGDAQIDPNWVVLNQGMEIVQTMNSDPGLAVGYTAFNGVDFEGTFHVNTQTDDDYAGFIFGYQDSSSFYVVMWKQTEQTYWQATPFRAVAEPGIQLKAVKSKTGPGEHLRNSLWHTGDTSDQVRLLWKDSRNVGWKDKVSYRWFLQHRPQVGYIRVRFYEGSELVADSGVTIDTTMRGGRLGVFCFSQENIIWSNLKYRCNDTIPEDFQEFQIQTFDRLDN
